Measured values as given in US20210069338A1.

Target: human NPY2 receptor (HEK293/hNPY2R cells) (human) (UniProt P49146)
Experiment: cell-based or functional assay

Chain of human NPY2 receptor (HEK293/hNPY2R cells) (human) (P49146 whole entry): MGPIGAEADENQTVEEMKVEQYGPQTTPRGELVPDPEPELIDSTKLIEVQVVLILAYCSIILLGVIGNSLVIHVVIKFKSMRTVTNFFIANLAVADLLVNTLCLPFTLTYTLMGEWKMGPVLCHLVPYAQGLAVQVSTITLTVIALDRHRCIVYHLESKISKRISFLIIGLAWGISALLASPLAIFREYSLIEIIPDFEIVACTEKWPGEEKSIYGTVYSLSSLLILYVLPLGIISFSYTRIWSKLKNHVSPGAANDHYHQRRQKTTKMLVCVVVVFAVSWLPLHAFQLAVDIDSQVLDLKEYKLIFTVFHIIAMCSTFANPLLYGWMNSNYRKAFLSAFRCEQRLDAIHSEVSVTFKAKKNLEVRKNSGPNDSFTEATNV
Chain of PYY(3-36) wild-type (peptide; modification not given) (chain, as listed by the source): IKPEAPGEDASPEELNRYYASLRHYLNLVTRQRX

## PYY(3-36) wild-type (peptide; modification not given)
  EC50 [nM], cAMP assay (inhibition of Forskolin stimulated cAMP accumulation in HEK293/hNPY2R cells), day 1: 0.09 nM
  EC50 [nM], cAMP assay (inhibition of Forskolin stimulated cAMP accumulation in HEK293/hNPY2R cells), day 2: 0.1 nM
